Test results published in the supplement of paper PMC9170038.

Test system: MS2 coat protein
Assay: apparent KD of MS2 coat protein; designed switch direction (-1 OFF switch, 1 ON switch): -1; higher = weaker reporter binding
Outline: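 For each design, the apparent KD is the median over clusters of curves fitted to normalised cluster fluorescence. Clusters held RNA switches with common flanks, transcribed on Illumina chips by stalled E. coli RNA polymerase. These were titrated with SNAP-549-labelled MS2 coat protein, doubling from 0.7 or 1.5 nM to 3 µM, without input, with 200 uM small-molecule ligand, or with an oligonucleotide input.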

[1] = input ligand: microRNA oligo, concentration not stated
[2] = Eterna round: R95, input ligand: FMN 200 uM
[3] = Eterna round: R95, input ligand: none
[4] = Eterna round: R95, input ligand: microRNA oligo, concentration not stated

Sequence | apparent KD of MS2 coat protein (input ligand: FMN 200 uM) [nM] | apparent KD of MS2 coat protein [1] [nM] | apparent KD of MS2 coat protein (input ligand: none) [nM] | apparent KD of MS2 coat protein [2] [nM] | apparent KD of MS2 coat protein [3] [nM] | apparent KD of MS2 coat protein [4] [nM]
UUGUUAUGUGUAGGAUAUGCGUGUUAUUAUUAUGCAGAAGGACAUGAGGAUCACCCAUGUGUAUUAUUAUUAUAUAUUAUAUAU [Title] (Eterna round: R96, puzzle: Exclusion NG 1) | 20 | 15.8 | 19.9 | – | – | –
UUGUUGUAUGUAGGAUAUGCAUAUUAUUGUUAUGCAGAAGGACAUGAGGAUCACCCAUGUAUAUUAUUAUUAUAUGUUAUAUAU [Title] (Eterna round: R96, puzzle: Exclusion NG 1) | 35.1 | 21 | 28 | – | – | –
UUUAAACUUACAAUCUUCGCUGGCAUGCUUGUGCCAGCUACAUGAGGAUCACCCAUGUUUUUUGCUCGUCUUAUUCU [Usre] (puzzle: Sensor v3, turn-off variant 2) | – | – | – | 23.5 | 25.1 | –
UUUAAUGGAAUUAAGAUCACAUGAGGAUCACCCAUGUAUAUAUAGGAUAUCAGCUCGAUUAGAGCUGAGAAGGAUAUAUACAUA [ExNG3/6-B1] (Eterna round: R96, puzzle: Exclusion NG 3) | 31.6 | 199 | 91.6 | – | – | –
UUUAAUUUAAUUAAGAUCACAUGAGGAUCACCCAUGUAUAUAUAGGAUAUCAGCUCGAUUAGAGCUGAGAAGGAUAUAUACAUA [ExNG3/4-A1] (Eterna round: R96, puzzle: Exclusion NG 3) | 164 | 215 | 58.9 | – | – | –
UUUAAUUUUUUUUUUUUACAAGCUUUUUGCUCGUCUUAUACAUGAGGAUCACCCAUGUAAAUGGAAGAUAAAUUAUC [JMF 7] (puzzle: Sensor v3, turn-off variant 2) | – | – | – | 16.7 | 17.3 | 18.1
UUUAAUUUUUUUUUUUUACAAGCUUUUUGCUCGUCUUAUACAUGAGGAUCACCCAUGUAGGUGGGAGGUAAAUUAUC [JMF 79] (puzzle: Sensor v3, turn-off variant 2) | – | – | – | 40.8 | 43.8 | 116
UUUAAUUUUUUUUUUUUACAAGCUUUUUGCUCGUCUUAUACAUGAGGAUCACCCAUGUGAGUGAGGGAUAAAUUAUC [JMF 41] (puzzle: Sensor v3, turn-off variant 2) | – | – | – | 19.4 | 16.7 | 23.9
UUUAAUUUUUUUUUUUUACAAGCUUUUUGCUCGUCUUAUACAUGAGGAUCACCCAUGUGGAUGGAGGGUAAAUUAUC [JMF 85] (puzzle: Sensor v3, turn-off variant 2) | – | – | – | 14.4 | 16.9 | 25.6
UUUAAUUUUUUUUUUUUACAAGCUUUUUGCUCGUCUUAUACAUGAGGAUCACCCAUGUGGAUGGGAAAUGAAUUAUC [JMF 97] (puzzle: Sensor v3, turn-off variant 2) | – | – | – | 18.6 | 19.7 | 115
UUUACAAGCUAUUGAUCCCACAUGAGGAUCACCCAUGUUGCUGCCGGUGACGGUAGCAUAACAAUUGCUCGUCUUAU [JL TOV1 3.56] (Eterna round: R97, puzzle: Sensor, turn-off variant 1) | 660 | – | 797 | – | – | –
UUUACAAGCUUAUGAUCCCACAUGAGGAUCACCCAUGUUGCUGCCGUGAGGUAGCUUUUAACAUAUGCUCGUCUUAU [JL TOV1 3.39] (Eterna round: R97, puzzle: Sensor, turn-off variant 1) | 764 | – | 838 | – | – | –
UUUAGUCGUGACAUGGGUGACAUGAGGAUCACCCAUGUCACAAGCUUGUUGCUCGUCUUAUAAUUAACCCAUGUCAC [LRO Sensor-off var1-15 mod of Stov1-13-A1 by Brourd] (Eterna round: R97, puzzle: Sensor, turn-off variant 1) | 19.3 | – | 19.6 | – | – | –
UUUAGUUCAGGAUAUGUAGAUUUUAACAUGAGGAUCACCCAUGUAGAUCCUGAAUUAACUACAGAAGGGAACAUUC [Exclusion 5: 2:c] (Eterna round: R96, puzzle: Exclusion 5) | 50.8 | 15.6 | 20.7 | – | – | –
UUUAGUUCAGGAUAUGUAGAUUUUAACAUGAGGAUCACCCAUGUAGAUCCUGAAUUAACUACAGAAGGGAACAUUC [Exclusion 5: 2:c] (puzzle: Exclusion 5) | – | – | – | – | – | 20.9
UUUAUAAUUUCAAUCUUCGCCAACAAACUUACGCUGGCCACAUGAGGAUCACCCAUGUUUUUUGUUCGUUUUAUUCU [Veorenxere] (Eterna round: R96, puzzle: Sensor v3, turn-off variant 2) | 25 | 62.2 | 27.1 | – | – | –

Sequence | apparent KD of MS2 coat protein (input ligand: FMN 200 uM) [nM] | apparent KD of MS2 coat protein [1] [nM] | apparent KD of MS2 coat protein (input ligand: none) [nM] | apparent KD of MS2 coat protein [2] [nM] | apparent KD of MS2 coat protein [3] [nM] | apparent KD of MS2 coat protein [4] [nM]
UUUAUAAUUUCAAUCUUCGCCAACAAACUUACGCUGGCCACAUGAGGAUCACCCAUGUUUUUUGUUCGUUUUAUUCU [Veorenxere] (puzzle: Sensor v3, turn-off variant 2) | – | – | – | 18.8 | 21.9 | 56.4
UUUAUAUAGUAAGGAUAUGUAUUAUUUUUGUCAACAGAAGGUACUGACAUGAGGAUCACCCAUGUUUUAGUGUGGGCAUGUAGU [JMF's solution 99] (Eterna round: R96, puzzle: Exclusion NG 1) | – | 177 | – | – | – | –
UUUAUGCUAGGAUAUGCACCCUCGAACAUGAGGAUCACCCAUGUACAAUAAACGCAUGAAGCAGAAGGAGCUUCCA [EX5 A.20] (Eterna round: R97, puzzle: Exclusion 5) | 56.4 | – | 37.1 | – | – | –
UUUAUGUCAGGAUAUGAGUAGUAGAACAAUAGUACUACUACUCAGAAGGGACAUGAGGAUCACCCAUGUGCCUC [Fiskers Ex 4 Super stable 44 mod 22] (Eterna round: R96, puzzle: Exclusion 4) | 326 | 32.3 | 40.4 | – | – | –
UUUAUGUCAGGAUAUGAGUAGUAGAACAAUAGUACUACUACUCAGAAGGGACAUGAGGAUCACCCAUGUGCCUC [Fiskers Ex 4 Super stable 44 mod 22] (puzzle: Exclusion 4) | – | – | – | – | – | 33.6
UUUCAUCAUGUAGGAUAUGUGUGGCGAAGCUAUACAGAAGGACAUGAGGAUCACCCAUGUUCUUGCGUCUGCGUACAGAUGCAA [14th something] (Eterna round: R96, puzzle: Exclusion NG 1) | 348 | 33.1 | 43.3 | – | – | –
UUUCCCUGUGUGAGGAUAUACUUGUUUGGGUUUUUGUAGAAGGCACAUGAGGAUCACCCAUGUAUUUUGUCGUG [JR_BME4_Sub020] (puzzle: Brourd's mod of Exclusion 4) | – | – | – | – | – | 40.9
UUUCGGUCAGGAUAUCCCGUACUACUAGCCGCGACUUACGAGGAGAAGGGACAUGAGGAUCACCCAUGUGCGCU [Colors] (Eterna round: R97, puzzle: Exclusion 4) | 16.2 | – | 14.7 | – | – | –
UUUGAAAAUGUAGGAUAUGGAAUAGGUAAGUAGCCAGAAGGACAUGAGGAUCACCCAUGUAAGAACAUAGGGAAAGAUAUGUUU [No clue what I'm doing] (Eterna round: R96, puzzle: Exclusion NG 1) | 90.8 | 32.9 | 44.7 | – | – | –
UUUGAUUAUGUGAGGAUAUACUGUUUGUAUUGAUUGUAGAAGGUACAUGAGGAUCACCCAUGUUUUGUAUUUAU [JR_BME4_Sub036] (puzzle: Brourd's mod of Exclusion 4) | – | – | – | – | – | 17.1
UUUGUAUAUGAAGGAUAUACUUAACAUGAGGAUCACCCAUGUGGUGUUGUGAGUGAGUGAGUUUAGUAGAAGGUCAAUUCUUUU [JMF's solution 92] (Eterna round: R96, puzzle: Exclusion NG 2) | 651 | 417 | 434 | – | – | –
UUUGUCUGUGUGAGGAUAUACUUUGUUUGGUCGUUGUAGAAGGCACAUGAGGAUCACCCAUGUAGUUUGUUGUG [JR_BME4_Sub014] (puzzle: Brourd's mod of Exclusion 4) | – | – | – | – | – | 20.3
UUUGUUUAUGUGAGGAUAUACUGUUUGUAUUGAUUGUAGAAGGUACAUGAGGAUCACCCAUGUUUUGUAUUUAU [JR_BME4_Sub035] (puzzle: Brourd's mod of Exclusion 4) | – | – | – | – | – | 17.7
UUUUAACAAGCGAGAUCCUACAUGAGGAUCACCCAUGUAUGUCAUGGUUUCCAUGGUCUUUUUGCUCGUCUUGUGUG [jl TITIN mod 7] (Eterna round: R97, puzzle: Sensor, turn-off variant 1) | 40.9 | – | 44.1 | – | – | –
UUUUAACAUGAGGAUCACCCAUGUGAGGAUAUCGAAAUUUAUAUUAAUAUUAAUAAUUCGAGAAGGCACAUUUU [JMF 21] (puzzle: Exclusion 1) | – | – | – | – | – | 117
